No end group written: not given here.
Molecular target: recombinant LDHA (human, UniProt P00338 1-332)
Assay: fluorescence polarisation

binding result: binds
Binder: AQRMNTAFTP (peptide, UniProt Q8NFG4 219-228, looked up, also: rhodamine B label (position not given here)) [FLCN-10 peptide (aa 219-228), rhodamine B-labeled]

— paper PMC9278990 (Nature structural & molecular biology, 2021)
